Tests used:
[1] = biological target: T1, mouse PD-1 (Sino Biological), coated on plates (mouse, UniProt Q02242 25-167); assay: ELISA, plates coated with mouse PD-1 at 1 µg/ml
T1 sequence (looked up): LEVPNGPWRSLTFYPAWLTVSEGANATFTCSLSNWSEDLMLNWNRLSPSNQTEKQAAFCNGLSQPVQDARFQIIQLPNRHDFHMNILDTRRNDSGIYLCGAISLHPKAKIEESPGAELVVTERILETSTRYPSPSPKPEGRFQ
Procedure: (§1) For ELISA, plates (Nunc) were coated with human, cynomolgus or mouse PD-1 (Sino Biological) at 1 μg/ml overnight at 4° C. After blocking and washing, antibodies were serially diluted in blocking buffer and added to the plates and incubated at room temperature for 1 h. The plates were then washed and subsequently incubated with secondary antibody goat anti human IgG HRP (Bethyl) for 1 h. After washing, TMB substrate was added and the reaction was stopped by 2 M HCl. The absorbance at 450 nm was read using a microplate reader (Molecular Device).

[2] = biological target: T2, mouse PD-1 on transfected 293F cells (mouse, UniProt Q02242 25-288); assay: FACS blocking assay: mouse Fc fusion-mouse PD-L1 binding to mouse PD-1 transfected 293F cells
T2 construct: whole, on cells; also called cell surface mouse PD-1
T2 sequence (looked up): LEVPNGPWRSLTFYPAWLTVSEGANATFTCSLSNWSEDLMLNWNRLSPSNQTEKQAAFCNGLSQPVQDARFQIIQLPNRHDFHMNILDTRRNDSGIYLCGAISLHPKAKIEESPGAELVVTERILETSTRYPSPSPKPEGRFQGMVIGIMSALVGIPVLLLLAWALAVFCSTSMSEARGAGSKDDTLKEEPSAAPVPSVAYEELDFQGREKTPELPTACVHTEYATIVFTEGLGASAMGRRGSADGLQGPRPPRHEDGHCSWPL

[3] = biological target: T3, human PD-1 (Sino Biological), coated on plates (human, UniProt Q15116 25-167); assay: ELISA, plates coated with human PD-1 at 1 µg/ml
T3 construct: whole entry named
Procedure: as §1

[4] = biological target: T4, human CTLA-4 on a constructed cell line (human, UniProt P16410 36-223); assay: FACS, CTLA-4.293F cells, one antibody concentration (not given)
T4 construct: whole, on cells
Procedure: (§2) Constructed cell lines that respectively express human PD-1, CD28, CTLA-4 or ICOS were transferred in to 96-well U-bottom plates (BD) at a density of 2×10⁵ cells/well. Testing antibodies were diluted in wash buffer (1×PBS/1% BSA) and incubated with cells at 4° C. for 1 h. After washing, the secondary antibody goat anti-human IgG Fc FITC (Jackson ImmunoResearch Lab) was added and incubated at 4° C. in the dark for 1 h. The cells were then washed once and resuspended in 1×PBS/1% BSA, and analyzed by flow cytometery (BD) and FlowJo software.

[5] = biological target: T5, human CD28 on a constructed cell line (human, UniProt P10747 19-220); assay: FACS, CD28.CHO-K1 cells, one antibody concentration (not given)
T5 construct: whole, on cells
Procedure: as §2

[6] = biological target: T2, mouse PD-1 on transfected 293F cells; assay: flow cytometry on 293F cells expressing mouse PD-1, quantitative beads
Procedure: (§3) Testing antibodies were 1:2 serially diluted in wash buffer (1×PBS/1% BSA) and incubated with cells at 4° C. for 1 h.

[7] = biological target: T2, mouse PD-1 on transfected 293F cells; assay: FACS, mouse PD-1 transfected 293F cells
[8] = biological target: T6, human PD-1 on transfected cells (human, UniProt Q15116 25-288); assay: FACS competition on CHO-S cells expressing human PD-1 against biotinylated Keytruda at 1 µg/ml
T6 construct: also called CHO-S cells expressing human PD-1; human PD-1 transfected CHO-S cells
Procedure: (§4) The cells were washed and the second antibody Streptavidin-PE were added and incubated for 30 min at 4° C. The cells were then washed once and resuspended in 1×PBS/1% BSA, and analyzed by flow cytometery (BD).

[9] = biological target: T6, human PD-1 on transfected cells; assay: FACS competition on CHO-S cells expressing human PD-1 against biotinylated WBP305BMK1 at 1 µg/ml
Procedure: as §4

[10] = biological target: T7, mouse PD-1 antigen protein of the affinity-maturation screen (mouse, UniProt Q02242 25-167, limits assumed, biotinylated); assay: capture ELISA, second-round affinity-maturation screen (scFv format likely); unit not given
T7 sequence (looked up): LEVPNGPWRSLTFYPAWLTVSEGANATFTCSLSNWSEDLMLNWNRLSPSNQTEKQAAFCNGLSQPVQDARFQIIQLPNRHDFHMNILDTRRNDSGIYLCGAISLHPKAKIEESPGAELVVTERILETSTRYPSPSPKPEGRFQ

[11] = biological target: human PD-1 antigen protein of the affinity-maturation screen (human, UniProt Q15116 25-167, limits assumed, biotinylated); assay: as above
[12] = biological target: cynomolgus PD-1 antigen protein of the affinity-maturation screen (cynomolgus); assay: as above
[13] = biological target: T6, human PD-1 on transfected cells; assay: flow cytometry on CHO-S cells expressing human PD-1, quantitative beads
Procedure: as §3

[14] = biological target: T6, human PD-1 on transfected cells; assay: FACS blocking assay: mouse Fc fusion-human PD-L1 binding to human PD-1 transfected CHO-S cells
[15] = biological target: T6, human PD-1 on transfected cells; assay: FACS, human PD-1 transfected CHO-S cells
[16] = biological target: cynomolgus PD-1 (Sino Biological), coated on plates (cynomolgus, UniProt B0LAJ3 25-170); assay: ELISA, plates coated with cynomolgus PD-1 at 1 µg/ml
Procedure: as §1

hPD-1.His = biological target: T8, hPD-1.His (human, UniProt Q15116 25-170); assay: SPR (ProteOn XPR36), antibody captured on Protein A, PD-1.His as analyte, 1:1 fit
T8 construct: the SPR text says only human PD-1; also called human PD-1 (SPR analyte)
From the text: (§5) Antibodies were characterized for affinity and binding kinetics to PD-1 by SPR assay using ProteOn XPR36 (Bio-Rad). Protein A protein (Sigma) was immobilized to a GLM sensor chip (Bio-Rad) through amine coupling. Purified antibodies were flowed over the sensor chip and captured by the Protein A. The chip was rotated […] and washed with running buffer (1×PBS/0.01% Tween20, Bio-Rad) until the baseline was stable. Seven concentrations of human PD-1 and running buffer were flowed through the sensor chip at a flow rate of 30 μL/min for an association phase of 180 s, followed by 300s dissociation. After regeneration, seven concentration of mouse PD-1 and running buffer were flowed through the sensor chip at a flow rate of 30 μL/min for an association phase of 180 s, followed by 300 s dissociation. The chip was regenerated with pH 1.5 H₃PO₄ after each run. The association and dissociation curve was fit by 1:1 Langmuir binding model using ProteOn software.

mPD-1.His = biological target: T9, mPD-1.His (mouse, UniProt Q02242 25-167, limits assumed); assay: as above
T9 construct: Soluble analyte, probably the extracellular domain; also called mouse PD-1 (SPR analyte)
T9 sequence (looked up): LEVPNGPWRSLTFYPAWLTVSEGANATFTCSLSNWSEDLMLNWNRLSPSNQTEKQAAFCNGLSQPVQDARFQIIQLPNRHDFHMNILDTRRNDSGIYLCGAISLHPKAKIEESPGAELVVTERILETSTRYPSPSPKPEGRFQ
From the text: as §5

T8 sequence (Q15116 25-170): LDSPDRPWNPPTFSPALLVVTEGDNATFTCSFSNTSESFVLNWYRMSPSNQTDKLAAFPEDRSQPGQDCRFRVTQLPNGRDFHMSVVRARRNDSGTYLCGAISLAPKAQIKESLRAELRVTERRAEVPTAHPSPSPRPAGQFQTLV
T6 sequence (Q15116 25-288 limits assumed): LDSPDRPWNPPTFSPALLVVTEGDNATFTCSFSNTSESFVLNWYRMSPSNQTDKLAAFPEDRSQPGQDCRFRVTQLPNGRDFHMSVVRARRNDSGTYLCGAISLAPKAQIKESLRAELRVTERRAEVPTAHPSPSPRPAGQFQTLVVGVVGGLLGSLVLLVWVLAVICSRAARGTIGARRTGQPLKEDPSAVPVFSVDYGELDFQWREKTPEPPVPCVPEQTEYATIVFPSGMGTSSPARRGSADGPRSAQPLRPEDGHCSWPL
T4 sequence (P16410 36-223): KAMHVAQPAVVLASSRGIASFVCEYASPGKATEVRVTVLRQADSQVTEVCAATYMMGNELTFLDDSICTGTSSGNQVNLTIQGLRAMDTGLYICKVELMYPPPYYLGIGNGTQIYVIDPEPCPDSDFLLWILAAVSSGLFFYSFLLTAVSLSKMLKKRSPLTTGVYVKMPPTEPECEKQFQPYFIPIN
T3 sequence (Q15116 25-167 limits assumed): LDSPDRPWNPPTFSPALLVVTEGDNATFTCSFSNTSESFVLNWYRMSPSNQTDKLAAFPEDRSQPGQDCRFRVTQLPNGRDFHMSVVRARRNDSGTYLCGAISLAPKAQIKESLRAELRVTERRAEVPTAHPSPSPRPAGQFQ
human PD-1 antigen protein of the affinity-maturation screen, sequence (Q15116 25-167 limits assumed): as above
cynomolgus PD-1 (Sino Biological), coated on plates, sequence (B0LAJ3 entry or part of it limits assumed): as the sequence (Q15116 25-170) above, with D2E, P10A, V19L, T35A, Q75R, T144A counted along it

Binder | EC50 [1] [nM] | IC50 [2] [nM] | EC50 [3] [nM] | binding result [4] | binding result [5] | Kd [6] [nM] | EC50 [7] [nM] | IC50 [8] [nM] | IC50 [9] [nM] | Bmax [10] | Bmax [11] | Bmax [12] | Kd [13] [nM] | IC50 [14] [nM] | EC50 [15] [nM] | EC50 [16] [nM] | Kd (hPD-1.His) [nM] | koff (hPD-1.His) [s⁻¹] | kon (hPD-1.His) [M⁻¹ s⁻¹] | Kd (mPD-1.His) [nM] | other results
2C2 (antibody, human IgG4, V domains shown) VH: QVQLVQSGAEVKKPGSSVKVSCKASGFTFTTYYISWVRQAPGQGLEYLGYINMGSGGTNYNEKFKGRVTITADKSTSTAYMELSSLRSEDTAVYYCAIIGYFDYWGQGTMVTVSS VL: DVVMTQSPLSLPVTLGQPASISCRSSQSLLDSDGATYLYWFQQRPGQSPRRLIYLVSTLGSGVPDRFSGSGSGTDFTLKISRVEAEDVGVYYCMQLTHWPYTFGQGTKLEIK | 0.41 | 16.7 | 0.12 | no binding | no binding | 17.4 | 11.8 | 11.1 | 6.55 | 0.416 | 3.17 | 1.67 | 0.264 | 2.2 | 2.36 | 0.12 | 5.64 | 0.00414 | 733000 | 6.92 | koff (mPD-1.His): 0.00153 s⁻¹; kon (mPD-1.His): 221000 M⁻¹ s⁻¹
2G4 (antibody, human IgG4, V domains shown) VH: QVQLVQSGAEVKKPGSSVKVSCKASGFTFTTYYISWVRQAPGQGLEYLGYINMGSGGTNYNEKFKGRVTITADKSTSTAYMELSSLRSEDTAVYYCAIIGYFDYWGQGTMVTVSS VL: DVVMTQSPLSLPVTLGQPASISCRSSQSLLDSDGSTYLYWFQQRPGQSPRRLIYLVSTLGSGVPDRFSGSGSGTDFTLKISRVEAEDVGVYYCMQLTHWPYTFGQGTKLEIK | 0.2 | 18.7 | 0.21 | no binding | no binding | 35.1 | 14.8 | 17.2 | 8.93 | 0.479 | 3.37 | 1.72 | 0.38 | 2.23 | 2.78 | 0.36 | 7.09 | 0.0047 | 663000 | 3.89 | koff (mPD-1.His): 0.0013 s⁻¹; kon (mPD-1.His): 334000 M⁻¹ s⁻¹
